Laboratory results from patent publication US20220211812A1 (Bristol-Myers Squibb, published 2022).
Square brackets hold non-standard residues; d marks the D form. Ends that are not written are not given here. Phe(4-Ac) = CC(=O)c1ccc(C[C@H](N)C(=O)O)cc1

T1: human RXFP1 receptor (human, UniProt Q9HBX9 1-757)
T1 sequence (looked up): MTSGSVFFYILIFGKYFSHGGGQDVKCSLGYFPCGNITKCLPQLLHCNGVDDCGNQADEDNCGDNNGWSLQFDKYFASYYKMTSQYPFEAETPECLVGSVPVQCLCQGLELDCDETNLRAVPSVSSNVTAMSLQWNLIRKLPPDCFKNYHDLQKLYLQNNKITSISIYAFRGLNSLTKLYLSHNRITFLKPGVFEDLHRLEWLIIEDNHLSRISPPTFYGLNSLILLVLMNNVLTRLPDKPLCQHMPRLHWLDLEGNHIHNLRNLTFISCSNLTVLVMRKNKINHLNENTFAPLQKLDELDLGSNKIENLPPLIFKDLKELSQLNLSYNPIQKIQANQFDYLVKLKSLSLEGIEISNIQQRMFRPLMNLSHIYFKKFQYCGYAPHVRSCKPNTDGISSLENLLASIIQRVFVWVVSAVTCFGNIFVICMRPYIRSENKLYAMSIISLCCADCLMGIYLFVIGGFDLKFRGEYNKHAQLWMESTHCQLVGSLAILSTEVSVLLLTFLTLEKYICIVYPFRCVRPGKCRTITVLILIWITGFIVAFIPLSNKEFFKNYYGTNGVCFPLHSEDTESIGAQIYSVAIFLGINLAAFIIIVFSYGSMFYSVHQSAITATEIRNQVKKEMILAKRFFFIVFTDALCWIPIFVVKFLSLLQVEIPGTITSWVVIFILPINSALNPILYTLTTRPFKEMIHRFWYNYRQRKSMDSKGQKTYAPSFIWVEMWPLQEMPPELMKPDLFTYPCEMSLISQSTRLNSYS

B1: AQ1-EEEGGG-Glu^γ-C13-CH3 (ligand)
chain 1: XLYSALANKCCHVGCTKRSLARFC
chain 2: ASWMEEVIKLCGRELVRAQIAICGMSTWS
peptide: EEEGGGE
modifications: not fully specified; Glu^γ bonded by amide to fatty acid -C13-CH3; oxime-linked to pAcF of the A chain; pAcF (para-acetyl-L-phenylalanine) at position 1, oxime-linked to PK enhancer EEEGGG-Glu^γ-C13-CH3
B2: AQ1-DRDDRD-C13-COOH (ligand)
chain 1: XLYSALANKCCHVGCTKRSLARFC
chain 2: ASWMEEVIKLCGRELVRAQIAICGMSTWS
peptide: DRDDRD
modifications: linked to fatty acid -C13-COOH; oxime-linked to pAcF of the A chain; pAcF (para-acetyl-L-phenylalanine) at position 1, oxime-linked to PK enhancer DRDDRD-C13-COOH
B3: AQ1-EEEEEE-Glu^γ-C15-COOH (ligand)
chain 1: XLYSALANKCCHVGCTKRSLARFC
chain 2: ASWMEEVIKLCGRELVRAQIAICGMSTWS
peptide: EEEEEEE
modifications: not fully specified; Glu^γ bonded by amide to fatty acid -C15-COOH; oxime-linked to pAcF of the A chain; pAcF (para-acetyl-L-phenylalanine) at position 1, oxime-linked to PK enhancer EEEEEE-Glu^γ-C15-COOH
B4: AQ1-GETGSSGEGT-Glu^γ-C13-COOH (ligand)
chain 1: XLYSALANKCCHVGCTKRSLARFC
chain 2: ASWMEEVIKLCGRELVRAQIAICGMSTWS
peptide: GETGSSGEGTE
modifications: not fully specified; Glu^γ bonded by amide to fatty acid -C13-COOH; oxime-linked to pAcF of the A chain; pAcF (para-acetyl-L-phenylalanine) at position 1, oxime-linked to PK enhancer GETGSSGEGT-Glu^γ-C13-COOH
B5: AQ1-GSHHHHHGS-Glu^γ-C13-COOH (ligand)
chain 1: XLYSALANKCCHVGCTKRSLARFC
chain 2: ASWMEEVIKLCGRELVRAQIAICGMSTWS
peptide: GSHHHHHGSE
modifications: not fully specified; Glu^γ bonded by amide to fatty acid -C13-COOH; oxime-linked to pAcF of the A chain; pAcF (para-acetyl-L-phenylalanine) at position 1, oxime-linked to PK enhancer GSHHHHHGS-Glu^γ-C13-COOH
B6: RLX-AQ1 (ligand)
chain 1: XLYSALANKCCHVGCTKRSLARFC
chain 2: ASWMEEVIKLCGRELVRAQIAICGMSTWS
modifications: pAcF (para-acetyl-L-phenylalanine) at position 1
B7: AQ1-GSGSGSGS-Glu^γ-C15-COOH (ligand)
chain 1: XLYSALANKCCHVGCTKRSLARFC
chain 2: ASWMEEVIKLCGRELVRAQIAICGMSTWS
peptide: GSGSGSGSE
modifications: not fully specified; Glu^γ bonded by amide to fatty acid -C15-COOH; oxime-linked to pAcF of the A chain; pAcF (para-acetyl-L-phenylalanine) at position 1, oxime-linked to PK enhancer GSGSGSGS-Glu^γ-C15-COOH
B8: AQ1-KKSAGSAG-Glu^γ-C13-COOH (ligand)
chain 1: XLYSALANKCCHVGCTKRSLARFC
chain 2: ASWMEEVIKLCGRELVRAQIAICGMSTWS
peptide: KKSAGSAGE
modifications: not fully specified; Glu^γ bonded by amide to fatty acid -C13-COOH; oxime-linked to pAcF of the A chain; pAcF (para-acetyl-L-phenylalanine) at position 1, oxime-linked to PK enhancer KKSAGSAG-Glu^γ-C13-COOH
B9: WT-RLX (ligand)
chain 1: QLYSALANKCCHVGCTKRSLARFC
chain 2: ASWMEEVIKLCGRELVRAQIAICGMSTWS
modifications: disulfide (positions not given here); ends not checked
B10: AQ1-KKKSGGSGG-Glu^γ-C13-COOH (ligand)
chain 1: XLYSALANKCCHVGCTKRSLARFC
chain 2: ASWMEEVIKLCGRELVRAQIAICGMSTWS
peptide: KKKSGGSGGE
modifications: not fully specified; Glu^γ bonded by amide to fatty acid -C13-COOH; oxime-linked to pAcF of the A chain; pAcF (para-acetyl-L-phenylalanine) at position 1, oxime-linked to PK enhancer KKKSGGSGG-Glu^γ-C13-COOH
B11: AQ1-EEEGGG-Glu^γ-C17-COOH (ligand)
chain 1: XLYSALANKCCHVGCTKRSLARFC
chain 2: ASWMEEVIKLCGRELVRAQIAICGMSTWS
peptide: EEEGGGE
modifications: not fully specified; Glu^γ bonded by amide to fatty acid -C17-COOH; oxime-linked to pAcF of the A chain; pAcF (para-acetyl-L-phenylalanine) at position 1, oxime-linked to PK enhancer EEEGGG-Glu^γ-C17-COOH
B12: AQ1-EGGGGSK-Glu^γ-C13-COOH (ligand)
chain 1: XLYSALANKCCHVGCTKRSLARFC
chain 2: ASWMEEVIKLCGRELVRAQIAICGMSTWS
peptide: EGGGGSKE
modifications: not fully specified; Glu^γ bonded by amide to fatty acid -C13-COOH; oxime-linked to pAcF of the A chain; pAcF (para-acetyl-L-phenylalanine) at position 1, oxime-linked to PK enhancer EGGGGSK-Glu^γ-C13-COOH
B13: AQ1-GGGKKK-Glu^γ-C13-COOH (ligand)
chain 1: XLYSALANKCCHVGCTKRSLARFC
chain 2: ASWMEEVIKLCGRELVRAQIAICGMSTWS
peptide: GGGKKKE
modifications: not fully specified; Glu^γ bonded by amide to fatty acid -C13-COOH; oxime-linked to pAcF of the A chain; pAcF (para-acetyl-L-phenylalanine) at position 1, oxime-linked to PK enhancer GGGKKK-Glu^γ-C13-COOH
B14: AQ1-KKSGGSGG-Glu^α-C13-COOH (ligand)
chain 1: XLYSALANKCCHVGCTKRSLARFC
chain 2: ASWMEEVIKLCGRELVRAQIAICGMSTWS
peptide: KKSGGSGGE
modifications: not fully specified; Glu^α linked to fatty acid -C13-COOH; oxime-linked to pAcF of the A chain; pAcF (para-acetyl-L-phenylalanine) at position 1, oxime-linked to PK enhancer KKSGGSGG-Glu^α-C13-COOH
B15: AQ1-EEEGGG-Glu^γ-C13-COOH (ligand)
chain 1: XLYSALANKCCHVGCTKRSLARFC
chain 2: ASWMEEVIKLCGRELVRAQIAICGMSTWS
peptide: EEEGGGE
modifications: not fully specified; Glu^γ bonded by amide to fatty acid -C13-COOH; oxime-linked to pAcF of the A chain; pAcF (para-acetyl-L-phenylalanine) at position 1, oxime-linked to PK enhancer EEEGGG-Glu^γ-C13-COOH
B16: RLX-BM25/AN1 (ligand)
chain 1: NLYSALANKCCHVGCTKRSLARFC
chain 2: ASWMEEVIKLCGRELVRAQIAICG[Phe(4-Ac)]STWS
modifications: disulfide (positions not given here); ends not checked
B17: AQ1-EEEGGG-Glu^γ-C15-COOH (ligand)
chain 1: XLYSALANKCCHVGCTKRSLARFC
chain 2: ASWMEEVIKLCGRELVRAQIAICGMSTWS
peptide: EEEGGGE
modifications: not fully specified; Glu^γ bonded by amide to fatty acid -C15-COOH; oxime-linked to pAcF of the A chain; pAcF (para-acetyl-L-phenylalanine) at position 1, oxime-linked to PK enhancer EEEGGG-Glu^γ-C15-COOH
B18: AQ1-KSGGSGG-Glu^γ-C13-COOH (ligand)
chain 1: XLYSALANKCCHVGCTKRSLARFC
chain 2: ASWMEEVIKLCGRELVRAQIAICGMSTWS
peptide: KSGGSGGE
modifications: not fully specified; Glu^γ bonded by amide to fatty acid -C13-COOH; oxime-linked to pAcF of the A chain; pAcF (para-acetyl-L-phenylalanine) at position 1, oxime-linked to PK enhancer KSGGSGG-Glu^γ-C13-COOH

These binders were tested against T1, human RXFP1 receptor (assay: cell-based or functional assay).
For B1, the “hRXFP1/CHO-K1 cAMP EC50 (nM, avg)” value was 0.38 nM.
For B2, the “hRXFP1/CHO-K1 cAMP EC50 (nM, avg)” value was 0.32 nM.
In the case of B3, the “hRXFP1/CHO-K1 cAMP EC50 (nM, avg)” value is reported as 11.1 nM.
In the case of B4, the “hRXFP1/CHO-K1 cAMP EC50 (nM, avg)” value is reported as 0.65 nM.
With B5 the “hRXFP1/CHO-K1 cAMP EC50 (nM, avg)” value was 0.28 nM.
In the case of B6, the “hRXFP1/CHO-K1 cAMP EC50 (nM, avg)” value is reported as 0.11 nM.
For B7, the “hRXFP1/CHO-K1 cAMP EC50 (nM, avg)” value was 2.79 nM.
With B8 the “hRXFP1/CHO-K1 cAMP EC50 (nM, avg)” value was 0.27 nM.
For B9, the “hRXFP1/CHO-K1 cAMP EC50 (nM, avg)” value was 0.12 nM.
With B10 the “hRXFP1/CHO-K1 cAMP EC50 (nM, avg)” value was 0.14 nM.
With B11 the “hRXFP1/CHO-K1 cAMP EC50 (nM, avg)” value was 10.5 nM.
For B12, the “hRXFP1/CHO-K1 cAMP EC50 (nM, avg)” value was 0.31 nM.
In the case of B13, the “hRXFP1/CHO-K1 cAMP EC50 (nM, avg)” value is reported as 0.19 nM.
B14 was tested, and the “hRXFP1/CHO-K1 cAMP EC50 (nM, avg)” value was 0.27 nM.
In the case of B15, the “hRXFP1/CHO-K1 cAMP EC50 (nM, avg)” value is reported as 0.31 nM.
B16 was tested, and the “hRXFP1/CHO-K1 cAMP EC50 (nM, avg)” value was 0.09 nM.
For B17, the “hRXFP1/CHO-K1 cAMP EC50 (nM, avg)” value was 5.26 nM.
For B18, the “hRXFP1/CHO-K1 cAMP EC50 (nM, avg)” value was 0.24 nM.
